Where a SMILES comes first, the peptide text is derived from it. [ ]: non-standard residue; d: D form. Dolaproine = CO[C@@H]([C@@H]1CCCN1)[C@@H](C)C(=O)O; Dil = CC[C@H](C)[C@H](NC)[C@@H](CC(=O)O)OC; NMeV = CN[C@H](C(=O)O)C(C)C
Assays:
[1] = test system: HuH7 cells; assay: Efficacy of G2-2-ADC in HuH7 cells (cell viability, PrestoBlue); assay type: cell-based, human; details: medium changed after one hour, viability after 98 hours, read-out: IC50 as determined by drug component
Description: FIG. 14 An antibody drug conjugate consisting of MMAF attached to a Malamide exchange linker linked to G2-2 was added to HuH7 cells.
An antibody drug conjugate consisting of MMAF attached by a malameide exchange linker to G2-2 was added to the cell culture medium of HUH7 cells in different concentrations. Medium was changed after one hour. Cell viability was analyzed after 98 hours using PrestoBlue reagent (ThermoFischer).

[2] = biological target: T1, GP73 AVRR (GP73 AA36 to 401, R52A) (Homo sapiens, UniProt Q8NBJ4, R52A); assay: Protein ELISA on GP73-His AVRR; assay type: binding; details: plates coated with GP73 AVRR; absorbance 450 nm
T1 construct: contains GP73-10×His AVRR, encompassing GP73 AA36 to 401 (GP73 AVRR); made in house; host or cells: 293HEK cells, isolated from the supernatant by IMAC
T1 sequence (Q8NBJ4 with tags, fused parts or gaps R52A): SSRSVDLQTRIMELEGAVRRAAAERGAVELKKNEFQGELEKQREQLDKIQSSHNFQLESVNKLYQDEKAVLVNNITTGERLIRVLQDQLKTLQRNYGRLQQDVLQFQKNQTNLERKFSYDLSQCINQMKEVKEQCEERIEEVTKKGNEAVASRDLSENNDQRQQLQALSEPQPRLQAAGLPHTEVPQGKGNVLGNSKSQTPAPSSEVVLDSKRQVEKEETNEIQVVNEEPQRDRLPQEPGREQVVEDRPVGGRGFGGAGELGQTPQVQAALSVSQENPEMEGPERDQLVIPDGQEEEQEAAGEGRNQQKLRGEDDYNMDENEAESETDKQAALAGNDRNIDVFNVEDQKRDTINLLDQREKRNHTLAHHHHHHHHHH
Description: (§1) 293HEK cells were either transfected with cDNA containing full length GP73 AA 1-401 C-terminal tagged with 10×HIS-Tag or with a GP73 ΔN variant containing AA 36 to 401 with a R52A mutation, resulting in a non-cleavable variant, C-terminal tagged with 10×HIS-Tag (GP73-His AVRR). In both constructs a secretion signal was added in frame to the N-terminus. The supernatant of the full length GP73 expressing cells contains sGP73-10×His, encompassing GP73 AA56 to 401 (sGP73; SEQ ID NO: 40), that has been proteolytically cleaved by furin or another protease at AA 55. The supernatant of the GP73 ΔN variant contains GP73-10×His AVRR, encompassing GP73 AA36 to 401 (GP73 AVRR; SEQ ID NO: 41) as shown in FIG. 20. Only the latter of the two constructs contains the rGP73 epitope. Both proteins were isolated by IMAC.
(§2) ELISA was carried out in 96 well plates coated overnight with sGP73 or GP73 AVRR and blocked with 2% gelatine. Antibodies 8A10, G2-2opti (IgG2a) or isotype control antibody were applied, incubated for 1.5 hours and washed away. A secondary Horse radish peroxidase labeled anti mouse antibody was added for 1 hour and after extensive washing a chromogenic substrate (TMB Amersham) was applied to detect peroxidase.

[3] = biological target: T2, sGP73 (GP73 AA56 to 401) (Homo sapiens, UniProt Q8NBJ4); assay: Protein ELISA on sGP73-His; assay type: binding; details: plates coated with sGP73; absorbance 450 nm
T2 construct: contains sGP73-10×His, encompassing GP73 AA56 to 401 (sGP73); made in house; host or cells: 293HEK cells, isolated from the supernatant by IMAC
T2 sequence (Q8NBJ4 with tags, fused parts or gaps): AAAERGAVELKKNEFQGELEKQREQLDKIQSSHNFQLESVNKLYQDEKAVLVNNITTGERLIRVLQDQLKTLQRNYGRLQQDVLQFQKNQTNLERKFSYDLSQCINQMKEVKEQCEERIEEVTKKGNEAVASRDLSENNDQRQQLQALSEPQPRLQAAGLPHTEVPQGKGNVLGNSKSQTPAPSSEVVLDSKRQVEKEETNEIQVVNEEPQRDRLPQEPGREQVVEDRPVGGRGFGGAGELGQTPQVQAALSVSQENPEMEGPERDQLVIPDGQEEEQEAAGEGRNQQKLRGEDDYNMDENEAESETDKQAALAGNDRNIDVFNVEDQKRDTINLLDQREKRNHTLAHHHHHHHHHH
Description: as §1, §2

[4] = biological target: T3, Furin cleavage of recombinant GP73-HIS (Homo sapiens, UniProt Q8NBJ4); assay: Furin cleavage of GP73-HIS depending on antibody binding (capture ELISA); assay type: biochemical; details: 3 U and 1.5 U of Furin; 2 hours at 30° C.
T3 construct: purchased Biolegend
T3 sequence (Q8NBJ4 36-401 limits assumed): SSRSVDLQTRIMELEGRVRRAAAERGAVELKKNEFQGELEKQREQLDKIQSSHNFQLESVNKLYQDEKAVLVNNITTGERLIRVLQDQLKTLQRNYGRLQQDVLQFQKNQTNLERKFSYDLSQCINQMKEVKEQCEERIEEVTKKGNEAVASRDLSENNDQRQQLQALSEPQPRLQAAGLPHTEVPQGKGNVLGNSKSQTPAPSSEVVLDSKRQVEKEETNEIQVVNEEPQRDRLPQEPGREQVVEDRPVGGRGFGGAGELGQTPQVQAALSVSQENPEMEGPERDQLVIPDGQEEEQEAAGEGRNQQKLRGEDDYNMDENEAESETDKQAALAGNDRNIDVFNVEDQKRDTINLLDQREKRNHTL
Excerpt: Measurements of Furin cleavage of GP73 using a range from 0 units to 3 units of Furin are depicted.
Testing of Furin cleavage exploits the fact that antibodies G2-1 and G2-2 bind GP73 N-terminal of or at the furin cleavage site 56R whereas recombinant GP73 with C-terminal HIS tag (GP73-HIS) is detected by anti HIS antibody at the C-terminus of GP73. Plate bound anti human IgG can capture G2-1 or G2-2, which binds GP73-HIS. If furin cleavage occurs in a setting where G2-1 or G2-2 have already bound to GP73-HIS, only N-terminal part of GP73 will reside at the G2 antibodies. In contrast, if furin cleavage is hindered by G2 antibodies, GP73-HIS can be detected by an anti HIS antibody.
Furin cleavage was carried out in 1.5 ml tubes. To test if G2 antibodies can hinder furin cleavage recombinant GOLPH-HIS protein (Biolegend) and G2-2 or G2-1 was incubated for 2 hours in 100 mM HEPES and 1 mM CaCl2 buffer pH 7.5 to allow antibody binding to GP73. […]
From each reaction 2×100 ul were transferred to wells of a 96 well plate that had been coated over night with anti human IgG and was blocked with 1% gelatine in PBS. After one hour incubation at room temperature the plate was washed, incubated with anti HIS-hrp antibody for one hour, washed again, incubated with a chromogenic substrate (TMB Amersham) to detect peroxidase, stopped and read at 450 nm.

[5] = biological target: T4, GP73 peptide: […] (Homo sapiens, UniProt Q8NBJ4); assay: Biacore surface plasmon resonance, data fit for 1:1 binding; details: Biacore 1:1 binding fit; GP73 peptide SSRSVDLQTRIMELEGRVRR
T4 construct: GP73 peptide: […]
Description: In one embodiment, Kd is measured using surface plasmon resonance assays using a BIACORE®-2000 or a BIACORE®-3000 (BIAcore, Inc., Piscataway, N.J.) at 25° C. with immobilized antigen CM5 chips at […] response units (RU). Briefly, carboxymethylated dextran biosensor chips (CM5, BIACORE, Inc.) are activated with N-ethyl-N′-(3-dimethylaminopropyl) carbodiimide hydrochloride (EDC) and N-hydroxysuccinimide (NHS) according to the supplier's instructions. Antigen is diluted with 10 mM sodium acetate, pH 4.8, to 5 μg/ml (−0.2 μM) before injection at a flow rate of 5 μl/minute to achieve approximately 10 response units (RU) of coupled protein. Following the injection of antigen, 1 M ethanolamine is injected to block unreacted groups. For kinetics measurements, two-fold serial dilutions of antibody (0.58 nM to 200 nM) are injected in PBS with 0.05% polysorbate 20 (TWEEN-20™) surfactant (PEST) at 25° C. at a flow rate of approximately 25 μl/min. Association rates (kon) and dissociation rates (koff) are calculated using a simple one-to-one Langmuir binding model (BIACORE® T100 Evaluation Software) by simultaneously fitting the association and dissociation sensorgrams. The equilibrium dissociation constant (Kd) is calculated as the ratio koff/kon. See, e.g., Chen et al., J. Mol. Biol. 293:865-881 (1999). If the on-rate exceeds […] s^−1 by the surface plasmon resonance assay above, then the on-rate can be determined by using a fluorescent quenching technique that measures the increase or decrease in fluorescence emission intensity (excitation=295 nm; emission=340 nm, 16 nm band-pass) at 25° C. of a 20 nM anti-antigen antibody in PBS, pH 7.2, in the presence of increasing concentrations of antigen as measured in a spectrometer, such as a stop-flow equipped spectrophometer (Aviv Instruments) or a 8000-series SLM-AMINCO™ spectrophotometer (ThermoSpectronic) with a stirred cuvette.

[6] = biological target: T5, peptide AA 36-55 of GP73 (Homo sapiens, UniProt Q8NBJ4); assay: Competition peptide ELISA with HRP-labeled antibodies; assay type: binding; details: unlabeled competing antibody at high concentration; binding antibody G2-2-HRP
Description: A peptide ELISA was performed using horse radish peroxidase labeled G2-1 (G2-1-HRP) or G2-2 (G2-2-HRP) as binding antibodies and G2-1 or G2-2 as competing antibodies. […] Binding to peptide AA 36-55 of GP73 served as positive control (filled circle), negative control was binding to an unrelated peptide (filled diamond) as described in Example 5.
(§3) ELISA was carried out in 96 well plates coated overnight with biotinylated peptide and blocked with 2% gelatine. Horse radish peroxidase labeled antibodies G2-1 (G2-1-HRP) or G2-2 (G2-2-HRP) were applied and incubated for 1.5 hours. For competition testing non labeled G2-1 or G2-2 was added at high concentration. For pH dependent binding the antibodies were applied in phosphate buffer pH 4.4, 5.4, 6.4 or 7.4. After extensive washing a chromogenic substrate (TMB Amersham) was added to detect peroxidase. The reaction was stopped and absorbance was read at 450 nm.

[7] = biological target: T5, peptide AA 36-55 of GP73; assay: pH dependent peptide ELISA; assay type: binding; details: pH range of 7.4 to 5.4
Description: A peptide ELISA was performed to test for pH dependency of binding to peptide AA 36-55 of GP73.
as §3

Molecule: CC[C@H](C)[C@@H]([C@@H](CC(=O)N1CCC[C@H]1[C@H](OC)[C@@H](C)C(=O)N[C@@H](Cc1ccccc1)C(=O)O)OC)N(C)C(=O)[C@@H](NC(=O)[C@@H](NC)C(C)C)C(C)C [MMAF, monomethylauristatin F] (H-[NMeV]V[Dil][Dolaproine]F-OH)
- IC50 [1]: 277 nM

B1: G2-2opti (IgG2a): chimeric human/murine version of G2-2opti with murine constant domains (antibody, V domains shown)
VH: QVQLVQSGGGVVQPGRSLRLSCAASGFTFSSYGMHWVRQAPGKGLEWVAVISYDGSNKYYADSVKGRFTISRDNSKNTLYLQMNSLRAEDTAVYYCAREGSAGMDVWGQGTTVTVSS
VL: QAVLTQPSSLSASPGASASLTCTLRSDISVGFHRIYWYQQKPGSPPQYLLRYKSDSDKQQGSGVPSRFSGSKDASANAGILLISGLQSDDEADYYCVIWHTSGVVFGGGTKLTVL
- binding to GP73 AVRR (ELISA) [2]: binds to GP73 AVRR
- binding to sGP73 (ELISA) [3]: not to sGP73

B2: G2-1: scFv clone with human IgG1 heavy and human Igk light constant regions; VH/VL SEQ ID NO: 10 and 11; binds rGP73 (antibody, V domains shown)
VH: EVQLLESGGGVVQPGRSLRLSCAASGFTFSSYAMSWVRQAPGKGLEWVSVISYDGSNKAYADSVKGRFTISRDNSKNTLYLQMNSLRAEDTAVYYCARGRSYYDSSGYLFDYWGQGTLVTVSS
VL: DIQMTQPHSVSESVGKTVIITCTGGGGSIDTNYVQWYQQRPGSAPVTLIYEDDQRPFGVPDRFSAAIDTSSSSASLTISGLTAEDEATYYCQSSHSTAVVFGGGTKVEIK
modifications: human IgG1 and Igk constant regions not cited; G2-1 heavy chain variable region (VH); G2-1 light chain variable region (VL)
- Furin cleavage of GP73 after preincubation with antibody [4]: significant reduction in Furin cleavage
- koff, measurement 1 + 2 mean [5]: 0.001981 s⁻¹
- kon, measurement 1 + 2 mean [5]: 635200 M⁻¹ s⁻¹
- competition with G2-2-HRP for peptide binding [6]: Competitive inhibition
- pH dependency of binding to peptide AA 36-55 of GP73 [7]: Stable binding
